Results as given in article doi:10.1101/645523.

Experiments:
Assay in all cases: cryo-EM structure
[1] = molecular target: Capsid associated protein P30 of bacteriophage PR772 (bacteriophage PR772)
[2] = molecular target: Host-recognition protein P5 of bacteriophage PR772 (bacteriophage PR772)
[3] = molecular target: Major capsid protein P3 of bacteriophage PR772 (bacteriophage PR772)

## Capsid associated protein P30 of bacteriophage PR772 (natural protein)
[1]
  stoichiometry N: 2

## Host-recognition protein P5 of bacteriophage PR772 (natural protein)
[2]
  stoichiometry N: 3

## Major capsid protein P3 of bacteriophage PR772 (natural protein)
[3]
  stoichiometry N: 3
